Data from publication PMC4656213, “Structural basis for inhibition of the Tob-CNOT7 interaction by a fragment screening approach” (Protein & Cell, 2015).

Target: T1, human CNOT7 (human, UniProt Q9UIV1 11-262)
T1 construct: CNOT7 (Caf1), human; A second preparation (N-terminal His6, pET-28b, Rosetta2) was made for the SPR screening; also called Caf1; CAF1; source: E. coli BL21 (DE3), purified following the protocol for wild-type Tob
Test: ITC; CNOT7 at 0.05 mM in the cell, TobN138 (wild type or K63A) at 0.45 mM titrated in; room temperature; 20 mM HEPES pH 7.5, 150 mM NaCl, 5% DMSO; one-site model
Conditions: both partners purified

T1 sequence (Q9UIV1 11-262): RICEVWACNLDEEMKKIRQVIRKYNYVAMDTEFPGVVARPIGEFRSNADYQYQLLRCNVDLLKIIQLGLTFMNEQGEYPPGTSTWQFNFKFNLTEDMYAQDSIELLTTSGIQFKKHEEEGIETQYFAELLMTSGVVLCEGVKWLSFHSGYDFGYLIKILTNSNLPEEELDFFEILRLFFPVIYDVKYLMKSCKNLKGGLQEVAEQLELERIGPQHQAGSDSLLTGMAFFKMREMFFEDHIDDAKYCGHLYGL

| Binder | stoichiometry N [sites] |
| --- | --- |
| human Tob residues 1-138 (TobN138), wild type (domain or fragment, UniProt P50616 1-138, looked up, Tob (Tob1), human, residues 1-138, containing the Box A and Box B motifs; Cloned into pGEX-6P-1 via BamHI and XhoI; A second preparation (His6-SUMO, pET-28b, Rosetta2) was made for the SPR screening; also called Tob1; TobN138 WT) MQLEIQVALNFIISYLYNKLPRRRVNIFGEELERLLKKKYEGHWYPEKPYKGSGFRCIHIGEKVDPVIEQASKESGLDIDDVRGNLPQDLSVWIDPFEVSYQIGEKGPVKVLYVDDNNENGCELDKEIKNSFNPEAQV | 0.611 ± 0.00797 |
| TobN138 K63A mutant (domain or fragment, human, UniProt P50616 1-138, looked up, Tob (Tob1), human, residues 1-138, with the point mutation K63A; Made by PCR mutagenesis with the human TobN138 expression plasmid as template; source: E. coli BL21 (DE3), purified following the protocol for wild-type Tob) MQLEIQVALNFIISYLYNKLPRRRVNIFGEELERLLKKKYEGHWYPEKPYKGSGFRCIHIGEAVDPVIEQASKESGLDIDDVRGNLPQDLSVWIDPFEVSYQIGEKGPVKVLYVDDNNENGCELDKEIKNSFNPEAQV | 0.737 ± 0.00585 |
